Like-named read-outs stand apart in the source and are kept apart here.
Experiments:
[1] = molecular target: Recombinant FcγRIIa (R131) with C-terminus Biotin (human) (UniProt P12318)
[2] = molecular target: Recombinant FcγRIIb with C-terminus Biotin (human) (UniProt P31994)
[3] = molecular target: Recombinant FcγRIIIa (F158) with C-terminus Biotin (human) (UniProt P08637)
[4] = molecular target: Recombinant FcγRIIa (H131) with C-terminus Biotin (human) (UniProt P12318)
[5] = molecular target: Recombinant FcγRIIIa (V158) with C-terminus Biotin (human)
Target sequence in this assay (P08637 17-208 F176V): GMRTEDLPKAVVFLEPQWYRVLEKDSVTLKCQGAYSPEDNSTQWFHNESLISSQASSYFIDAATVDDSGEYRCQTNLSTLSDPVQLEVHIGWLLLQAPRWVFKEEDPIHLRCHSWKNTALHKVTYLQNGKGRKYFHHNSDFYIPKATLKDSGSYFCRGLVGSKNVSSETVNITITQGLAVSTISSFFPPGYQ

[6] = molecular target: Recombinant FcγRIIIa (F158) with C-terminus Biotin (human) (UniProt P08637); remark: listed apart in the source
[7] = molecular target: Recombinant FcγRIIa (H131) with C-terminus Biotin (human) (UniProt P12318); remark: listed apart in the source
[8] = molecular target: Recombinant FcγRIIa (R131) with C-terminus Biotin (human) (UniProt P12318); remark: listed apart in the source
[9] = molecular target: Recombinant FcγRI with C-terminus Biotin (human) (UniProt P12314)
[10] = molecular target: Recombinant FcγRIIa (H131) with C-terminus Biotin (human) (UniProt P12318); remark: listed apart in the source
[11] = molecular target: Recombinant FcγRIIa (R131) with C-terminus Biotin (human) (UniProt P12318); remark: listed apart in the source
[12] = molecular target: Recombinant FcγRIIIa (F158) with C-terminus Biotin (human) (UniProt P08637); remark: listed apart in the source
[13] = molecular target: Recombinant FcγRIIIa (V158) with C-terminus Biotin (human); remark: listed apart in the source
Target sequence in this assay (P08637 17-208 F176V): as above

[14] = molecular target: Recombinant FcγRIIb with C-terminus Biotin (human) (UniProt P31994); assay: other; qualitative only
[15] = molecular target: Recombinant FcγRIIa (R131) with C-terminus Biotin (human) (UniProt P12318); details: domain or fragment
[16] = molecular target: Recombinant FcγRI with C-terminus Biotin (human) (UniProt P12314); details: domain or fragment
[17] = molecular target: Recombinant FcγRIIIa (F158) with C-terminus Biotin (human) (UniProt P08637); details: domain or fragment
[18] = molecular target: Recombinant FcγRIIIa (V158) with C-terminus Biotin (human); details: domain or fragment
Target sequence in this assay (P08637 17-208 F176V): as above

[19] = molecular target: Recombinant FcγRI with C-terminus Biotin (human) (UniProt P12314); assay: BLI; Octet Red; biotinylated FcγR-AviTag loaded on Streptavidin biosensors (~0.5–1.0 nm); antibody in solution, 75 nM-1.17 nM for FcγRI, 5000 to 78.125 nM for the other receptors; PBST (PBS, 0.02% Tween20) pH 7.2; 60 s association, 60 s dissociation; steady state, one-site fit
[20] = molecular target: Recombinant FcγRIIIa (V158) with C-terminus Biotin (human); assay: as above
[21] = molecular target: Recombinant FcγRIIa (H131) with C-terminus Biotin (human) (UniProt P12318); assay: as above
[22] = molecular target: Recombinant FcγRIIa (R131) with C-terminus Biotin (human); assay: as above
[23] = molecular target: Recombinant FcγRIIIa (F158) with C-terminus Biotin (human) (UniProt P08637); assay: as above
[24] = molecular target: Recombinant FcγRIIb with C-terminus Biotin (human) (UniProt P31994); remark: listed apart in the source
[25] = molecular target: Recombinant FcγRIIIa (F158) with C-terminus Biotin (human) (UniProt P08637); remark: listed apart in the source
[26] = molecular target: Recombinant FcγRIIIa (V158) with C-terminus Biotin (human); remark: listed apart in the source
Target sequence in this assay (P08637 17-208 F176V): as above

[27] = molecular target: Recombinant FcγRIIa (H131) with C-terminus Biotin (human) (UniProt P12318); remark: listed apart in the source
[28] = molecular target: Recombinant FcγRIIa (R131) with C-terminus Biotin (human) (UniProt P12318); remark: listed apart in the source
[29] = molecular target: Recombinant FcγRI with C-terminus Biotin (human) (UniProt P12314); remark: listed apart in the source
[30] = molecular target: Recombinant FcγRIIIa (F158) with C-terminus Biotin (human) (UniProt P08637); remark: listed apart in the source
[31] = molecular target: Recombinant FcγRIIIa (V158) with C-terminus Biotin (human); remark: listed apart in the source
Target sequence in this assay (P08637 17-208 F176V): as above

[32] = molecular target: Recombinant FcγRIIa (H131) with C-terminus Biotin (human) (UniProt P12318); remark: listed apart in the source
[33] = molecular target: Recombinant FcγRIIa (R131) with C-terminus Biotin (human) (UniProt P12318); remark: listed apart in the source
[34] = molecular target: Recombinant FcγRIIa (R131) with C-terminus Biotin (human) (UniProt P12318); remark: listed apart in the source
[35] = molecular target: Recombinant FcγRIIIa (F158) with C-terminus Biotin (human) (UniProt P08637); remark: listed apart in the source
[36] = molecular target: Recombinant FcγRIIIa (V158) with C-terminus Biotin (human); remark: listed apart in the source
Target sequence in this assay (P08637 17-208 F176V): as above

[37] = molecular target: Recombinant FcγRIIa (H131) with C-terminus Biotin (human) (UniProt P12318); remark: listed apart in the source
[38] = molecular target: Recombinant FcγRIIa (H131) with C-terminus Biotin (human) (UniProt P12318); remark: listed apart in the source
[39] = molecular target: Recombinant FcγRIIa (R131) with C-terminus Biotin (human) (UniProt P12318); remark: listed apart in the source
[40] = molecular target: Recombinant FcγRIIIa (F158) with C-terminus Biotin (human) (UniProt P08637); remark: listed apart in the source
[41] = molecular target: Recombinant FcγRIIIa (V158) with C-terminus Biotin (human); remark: listed apart in the source

Sequence of Recombinant FcγRI with C-terminus Biotin (human) (P12314 16-292): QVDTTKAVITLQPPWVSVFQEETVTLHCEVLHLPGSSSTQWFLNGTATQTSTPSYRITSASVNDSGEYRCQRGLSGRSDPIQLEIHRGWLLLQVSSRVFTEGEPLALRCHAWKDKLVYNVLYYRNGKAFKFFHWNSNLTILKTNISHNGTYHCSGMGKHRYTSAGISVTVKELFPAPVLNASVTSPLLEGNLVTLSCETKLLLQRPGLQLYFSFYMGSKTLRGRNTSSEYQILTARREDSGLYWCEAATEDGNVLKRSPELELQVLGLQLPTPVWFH
Sequence of Recombinant FcγRIIb with C-terminus Biotin (human) (P31994 43-217): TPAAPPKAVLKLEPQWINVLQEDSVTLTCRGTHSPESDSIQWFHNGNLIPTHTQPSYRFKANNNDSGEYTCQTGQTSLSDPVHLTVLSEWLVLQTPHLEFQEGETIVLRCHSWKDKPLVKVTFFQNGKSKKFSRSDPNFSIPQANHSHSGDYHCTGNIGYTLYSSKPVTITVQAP
Sequence of Recombinant FcγRIIIa (F158) with C-terminus Biotin (human) (P08637 17-208): as the sequence (P08637 17-208 F176V) above, with V160F counted along it
Sequence of Recombinant FcγRIIa (H131) with C-terminus Biotin (human) (P12318 34-217): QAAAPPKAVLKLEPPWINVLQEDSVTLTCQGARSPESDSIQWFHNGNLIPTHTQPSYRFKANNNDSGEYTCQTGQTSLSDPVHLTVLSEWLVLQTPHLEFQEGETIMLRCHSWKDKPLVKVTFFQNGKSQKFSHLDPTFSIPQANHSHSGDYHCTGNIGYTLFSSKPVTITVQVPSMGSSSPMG
Sequence of Human IgG3 (P01860 whole entry, looked up): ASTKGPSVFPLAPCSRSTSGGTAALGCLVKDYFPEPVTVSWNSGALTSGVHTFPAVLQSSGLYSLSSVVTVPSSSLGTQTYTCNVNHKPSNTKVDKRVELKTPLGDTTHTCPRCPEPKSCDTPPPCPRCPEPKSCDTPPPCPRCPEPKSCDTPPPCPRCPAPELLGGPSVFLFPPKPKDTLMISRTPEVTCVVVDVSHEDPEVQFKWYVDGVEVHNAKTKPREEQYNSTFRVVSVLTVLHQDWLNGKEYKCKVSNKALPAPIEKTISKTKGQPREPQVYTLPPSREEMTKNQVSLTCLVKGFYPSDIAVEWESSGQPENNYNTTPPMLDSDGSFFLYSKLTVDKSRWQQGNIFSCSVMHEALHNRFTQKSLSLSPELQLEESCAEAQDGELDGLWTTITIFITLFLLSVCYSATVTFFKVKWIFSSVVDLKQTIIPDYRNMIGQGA
Sequence of Recombinant FcγRIIa (R131) with C-terminus Biotin (human) (UniProt P12318) (P12318 34-217 H167R): as the sequence (P12318 34-217) above, with H134R counted along it

Substance: Gamunex (from UniProt P01857)
- IC50 [1]: 0.205 µM
- IC50 [2]: 2.67 µM
- IC50 [3]: 0.11 µM
- IC50 [4]: 0.0635 µM
- IC50 [5]: 0.017 µM

Substance: Human IgG1 (from UniProt P01857)
- IC50 [6]: 0.065 µM
- IC50 [7]: 0.067 µM
- IC50 [8]: 0.122 µM
- IC50 [9]: 0.00023 µM

Substance: Human IgG3 (from UniProt P01860)
- IC50 [10]: 0.0408 µM
- IC50 [11]: 0.085 µM
- IC50 [12]: 0.0448 µM
- IC50 [13]: 0.0123 µM
- IC50 [14]: 0.819 µM

Substance: Human IgG Fc Fragment
- IC50 [15]: 2.28 µM
- IC50 [16]: 0.00056 µM
- IC50 [17]: 0.342 µM
- IC50 [18]: 0.081 µM

Substance: Etanercept (Fc fusion)
- Kd [19]: 0.014 µM
- Kd [20]: 0.28 µM
- Kd [21]: 0.41 µM
- Kd [22]: 0.4 µM

Substance: Cetuximab (antibody)
- Kd [19]: 0.017 µM
- Kd [23]: 1.3 µM
- Kd [21]: 0.97 µM
- Kd [22]: 1.4 µM

Substance: Human IgG (human polyclonal IgG) (from UniProt P01857)
- IC50 [24]: 0.989 µM
- IC50 [25]: 0.0994 µM
- IC50 [26]: 0.0157 µM
- IC50 [27]: 0.00464 µM
- IC50 [28]: 0.0258 µM
- IC50 [29]: 0.00011 µM

Substance: Flebogamma (from UniProt P01857)
- IC50 [30]: 0.111 µM
- IC50 [31]: 0.0152 µM
- IC50 [32]: 0.0373 µM
- IC50 [33]: 0.117 µM
- IC50 [14]: 0.918 µM

Substance: Infliximab (antibody)
- Kd [19]: 0.021 µM
- Kd [23]: 0.35 µM
- Kd [20]: 0.12 µM
- Kd [21]: 0.23 µM
- Kd [22]: 0.34 µM

Substance: NIST mAb standard (antibody)
- Kd [19]: 0.012 µM
- Kd [20]: 0.42 µM
- Kd [21]: 0.64 µM
- Kd [22]: 0.8 µM

Substance: NIST mAb standard (from UniProt P01857)
- IC50 [34]: 0.261 µM
- IC50 [35]: 0.466 µM
- IC50 [36]: 0.0445 µM
- IC50 [37]: 0.0981 µM

Substance: Octagam (from UniProt P01857)
- IC50 [38]: 0.0809 µM
- IC50 [39]: 0.249 µM
- IC50 [40]: 0.131 µM
- IC50 [41]: 0.0189 µM
- IC50 [14]: 2.08 µM

Source: article PMC9287719
